# Source: patent publication US20170137467A1 (CHROMOTEK, published 2017)
# Square brackets hold non-standard residues; d marks the D form. GABA = NCCCC(=O)O
# T1: BC2T P1Q (human)
# T1 construct: position 1 library, row Q
# T1 peptide: Ac-QDRKAAVSHWQQ-NH2
# T2: BC2T V7K (human)
# T2 construct: position 7 library, row K
# T2 peptide: Ac-PDRKAAKSHWQQ-NH2
# T3: BC2T A6P (human)
# T3 construct: position 6 library (BC2TA6X), row P
# T3 peptide: Ac-PDRKAPVSHWQQ-NH2
# T4: BC2T V7F (human)
# T4 construct: position 7 library, row F
# T4 peptide: Ac-PDRKAAFSHWQQ-NH2
# T5: BC2T A6Y (human)
# T5 construct: position 6 library (BC2TA6X), row Y
# T5 peptide: Ac-PDRKAYVSHWQQ-NH2
# T6: BC2T A6Q (human)
# T6 construct: position 6 library (BC2TA6X), row Q
# T6 peptide: Ac-PDRKAQVSHWQQ-NH2
# T7: BC2T R3T (human)
# T7 construct: position 3 library (BC2TR3X), row T
# T7 peptide: Ac-PDTKAAVSHWQQ-NH2
# T8: BC2T S8C(Abu) (also: Abu described as gamma-amino butyric acid)
# T8 construct: positional scanning library member
# T8 peptide: Ac-PDRKAAV[GABA]HWQQ-NH2
# T9: BC2T S8H
# T9 construct: positional scanning library member
# T9 peptide: Ac-PDRKAAVHHWQQ-NH2
# T10: BC2T Q11N
# T10 construct: positional scanning library member
# T10 peptide: Ac-PDRKAAVSHWNQ-NH2
# T11: BC2T H9S
# T11 construct: positional scanning library member
# T11 peptide: Ac-PDRKAAVSSWQQ-NH2
# T12: BC2T Q12P
# T12 construct: positional scanning library member
# T12 peptide: Ac-PDRKAAVSHWQP-NH2
# T13: BC2T W10N
# T13 construct: positional scanning library member
# T13 peptide: Ac-PDRKAAVSHNQQ-NH2
# T14: BC2T Q12K
# T14 construct: positional scanning library member
# T14 peptide: Ac-PDRKAAVSHWQK-NH2
# T15: BC2T W10P
# T15 construct: positional scanning library member
# T15 peptide: Ac-PDRKAAVSHPQQ-NH2
# T16: BC2T Q12H
# T16 construct: positional scanning library member
# T16 peptide: Ac-PDRKAAVSHWQH-NH2
# T17: BC2T Q11F
# T17 construct: positional scanning library member
# T17 peptide: Ac-PDRKAAVSHWFQ-NH2
# T18: BC2T S8V
# T18 construct: positional scanning library member
# T18 peptide: Ac-PDRKAAVVHWQQ-NH2
# T19: BC2T W10Q
# T19 construct: positional scanning library member
# T19 peptide: Ac-PDRKAAVSHQQQ-NH2
# Legend:
# BC2T P1Q = biological target: T1, BC2T P1Q; test: library pulldown, LC-MS of supernatant; ratio vs GFP-Nb control (0=captured, 1=not captured)
# Excerpt: (§1) In total, 12 different BC2T libraries displaying all 20 proteinogenic amino acids in one single position of the peptide were used in immunoprecipitation experiments. […] The direct comparison with the GFP-Nb made it possible to determine the quantitative degree of peptide capture without the need of labeled standards. […] The more peptide was captured the more the value approximates 0. It was not possible to discriminate between isoleucine (I) and leucine (L) peptide versions since these peptides are isobaric.
# (§2) To investigate the binding specificity of the BC2T and derived mutants peptide libraries for each amino acid position of the sequence […] (SEQ ID NO:4) were synthesized with acetyl and amide groups located at the N-termini or C-termini respectively (Intavis). […] Incubations were performed in 300 μl PBS/0.01% CHAPS for 1 h on a HulaMixer (Life Technologies). Subsequent to a centrifugation step 10 μl supernatant were analyzed in a LC-MS procedure. Peptides were separated using an UltiMate3000 RSLCnano System (Thermo Scientific), composed of a C18 PepMap100μ-Precolumn (300 μm×5 mm; particle size: 5 μm; pore size: 100 Å—Thermo Scientific) and a C18 analytical column (Acclaim Rapid Separation LC (RSLC) Column: 150 mm×5 mm; particle size: 2.2 μm; pore size: 100 Å—Thermo Scientific). A step gradient was applied starting at 8% and ending after 20 min at 30% eluent B (80% acetonitrile, 20% H₂O, 0.1% formic acid).
# BC2T V7K = biological target: T2, BC2T V7K; test: as above
# Excerpt: as §1, §2
# BC2T A6P = biological target: T3, BC2T A6P; test: as above
# Excerpt: as §1, §2
# BC2T V7F = biological target: T4, BC2T V7F; test: as above
# Excerpt: as §1, §2
# BC2T A6Y = biological target: T5, BC2T A6Y; test: as above
# Excerpt: as §1, §2
# BC2T A6Q = biological target: T6, BC2T A6Q; test: as above
# Excerpt: as §1, §2
# BC2T R3T = biological target: T7, BC2T R3T; test: as above
# Excerpt: as §1, §2
# BC2T S8C(Abu) = biological target: T8, BC2T S8C(Abu); test: positional peptide library pulldown on immobilised Nb, LC-MS of supernatant; signal ratio to control GFP-Nb (1 = not captured, near 0 = captured)
# Method in brief: (§3)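 Unbound peptide left in supernatant after 1 h pulldown in PBS/0.01% CHAPS measured by reversed-phase LC-MS (8–30% eluent B gradient, 20 min).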
# BC2T S8H = biological target: T9, BC2T S8H; test: as above
# Method in brief: as §3
# BC2T S8(I/L2) = biological target: T20, BC2T S8(I/L2) (N-terminal acetyl; C-terminal amide); test: as above
# T20 construct: positional scanning library member; I or L not resolved
# Method in brief: as §3
# BC2T Q11N = biological target: T10, BC2T Q11N; test: as above
# Method in brief: as §3
# BC2T H9S = biological target: T11, BC2T H9S; test: as above
# Method in brief: as §3
# BC2T Q12P = biological target: T12, BC2T Q12P; test: as above
# Method in brief: as §3
# BC2T W10N = biological target: T13, BC2T W10N; test: as above
# Method in brief: as §3
# BC2T Q12K = biological target: T14, BC2T Q12K; test: as above
# Method in brief: as §3
# BC2T H9(I/L2) = biological target: T21, BC2T H9(I/L2) (N-terminal acetyl; C-terminal amide); test: as above
# T21 construct: positional scanning library member; I or L not resolved
# Method in brief: as §3
# BC2T W10P = biological target: T15, BC2T W10P; test: as above
# Method in brief: as §3
# BC2T Q12H = biological target: T16, BC2T Q12H; test: as above
# Method in brief: as §3
# BC2T Q11F = biological target: T17, BC2T Q11F; test: as above
# Method in brief: as §3
# BC2T S8V = biological target: T18, BC2T S8V; test: as above
# Method in brief: as §3
# BC2T W10Q = biological target: T19, BC2T W10Q; test: as above
# Method in brief: as §3
ratio (BC2T P1Q),ratio (BC2T V7K),ratio (BC2T A6P),ratio (BC2T V7F),ratio (BC2T A6Y),ratio (BC2T A6Q),ratio (BC2T R3T),Binder,ratio (BC2T S8C(Abu)),ratio (BC2T S8H),ratio (BC2T S8(I/L2)),ratio (BC2T Q11N),ratio (BC2T H9S),ratio (BC2T Q12P),ratio (BC2T W10N),ratio (BC2T Q12K),ratio (BC2T H9(I/L2)),ratio (BC2T W10P),ratio (BC2T Q12H),ratio (BC2T Q11F),ratio (BC2T S8V),also measured
0.6,0.3,1.1,0.2,1,1,0.3,"BC2 nanobody (BC2-Nb) (VHH, immobilised on agarose/sepharose beads in this assay; also called BC2 nanotrap (immobilised form); not shown: C-terminal 6xHis-tag added by pHEN6 vector) VHH: QVQLVESGGGLVQPGGSLTLSCTASGFTLDHYDIGWFRQAPGKEREGVSCINNSDDDTYYADSVKGRFTIFMDNAKDTVYLQMNSLKPEDTAIYYCAEARGCKRGRYEYDFWGQGTQVTVSS",–,–,–,–,–,–,–,–,–,–,–,–,–,–
–,–,–,–,–,–,–,"BC2 nanobody (VHH, immobilised on beads in this assay; also called BC2-Nb; BC2 nanotrap (immobilised)) VHH: QVQLVESGGGLVQPGGSLTLSCTASGFTLDHYDIGWFRQAPGKEREGVSCINNSDDDTYYADSVKGRFTIFMDNAKDTVYLQMNSLKPEDTAIYYCAEARGCKRGRYEYDFWGQGTQVTVSS",0,0.7,0.7,0.1,0.2,0.1,1,0,0.1,1.1,0.1,0,0.1,ratio (BC2T W10Q): 1.1
0.7,0.3,1,0.4,0.9,0.9,0.8,"BC2-NbR106S (VHH, immobilised on beads in this assay; not shown: C-terminal 6xHis-tag added by pHEN6 vector) VHH: QVQLVESGGGLVQPGGSLTLSCTASGFTLDHYDIGWFRQAPGKEREGVSCINNSDDDTYYADSVKGRFTIFMDNAKDTVYLQMNSLKPEDTAIYYCAEARGCKRGSYEYDFWGQGTQVTVSS",–,–,–,–,–,–,–,–,–,–,–,–,–,–
–,–,–,–,–,–,–,"BC2-NbR106S (VHH, headlock mutant of BC2-Nb; immobilised on beads in this assay) VHH: QVQLVESGGGLVQPGGSLTLSCTASGFTLDHYDIGWFRQAPGKEREGVSCINNSDDDTYYADSVKGRFTIFMDNAKDTVYLQMNSLKPEDTAIYYCAEARGCKRGSYEYDFWGQGTQVTVSS",0.1,0.9,0.9,0.3,0.5,0.2,1.1,0.1,0.3,1.1,0.3,0.2,0.3,ratio (BC2T W10Q): 1.1
